The record followed here is the Human Domainome abundance scans (Beltran et al. 2025).

± gives the uncertainty stated by the source.

B1: Gamma-crystallin C, residues 4 to 79; numbered along this chain, P07315 (parent)
chain: ITFYEDRAFQGRSYETTTDCPNLQPYFSRCNSIRVESGCWMLYERPNYQGQQYLLRRGEYPDYQQWMGLSDSIRSC

The variants in this series derive from B1. Description: abundance fitness (aPCA) (normalised: wild type 0, dead -1); higher = more abundant; growth selection in yeast, the domain comes from the species named. To be noted: Homo sapiens.
For ITFYEDRAFQGRSYDTTTDCPNLQPYFSRCNSIRVESGCWMLYERPNYQGQQYLLRRGEYPDYQQWMGLSDSIRSC, the abundance fitness was -0.064 ± 0.12.

On to ITFYEDRAFQGRSYVTTTDCPNLQPYFSRCNSIRVESGCWMLYERPNYQGQQYLLRRGEYPDYQQWMGLSDSIRSC, for which the abundance fitness was -0.073 ± 0.11.

In the case of ITFYEDRAFQGRSYHTTTDCPNLQPYFSRCNSIRVESGCWMLYERPNYQGQQYLLRRGEYPDYQQWMGLSDSIRSC, the abundance fitness was 0.066 ± 0.26.

With ITFYEDRAFQGRSYPTTTDCPNLQPYFSRCNSIRVESGCWMLYERPNYQGQQYLLRRGEYPDYQQWMGLSDSIRSC, the abundance fitness was -0.072 ± 0.14.

With ITFYEDRAFQGRSYITTTDCPNLQPYFSRCNSIRVESGCWMLYERPNYQGQQYLLRRGEYPDYQQWMGLSDSIRSC, the abundance fitness was 0.066 ± 0.23.

As for ITFYEDRAFQGRSYETPTDCPNLQPYFSRCNSIRVESGCWMLYERPNYQGQQYLLRRGEYPDYQQWMGLSDSIRSC, the abundance fitness was -0.01 ± 0.28.

With ITFYEDRAFQGRSYETFTDCPNLQPYFSRCNSIRVESGCWMLYERPNYQGQQYLLRRGEYPDYQQWMGLSDSIRSC, the abundance fitness was -0.152 ± 0.14.

As to ITFYEDRAFQGRSYETMTDCPNLQPYFSRCNSIRVESGCWMLYERPNYQGQQYLLRRGEYPDYQQWMGLSDSIRSC, the abundance fitness is -0.124 ± 0.11.

As to ITFYEDRAFQGRSYETLTDCPNLQPYFSRCNSIRVESGCWMLYERPNYQGQQYLLRRGEYPDYQQWMGLSDSIRSC, the abundance fitness is -0.089 ± 0.084.

For the variant ITFYEDRAFQGRSYETETDCPNLQPYFSRCNSIRVESGCWMLYERPNYQGQQYLLRRGEYPDYQQWMGLSDSIRSC, the abundance fitness stood at 0.046 ± 0.14.

Regarding ITFYEDRAFQGRSYETKTDCPNLQPYFSRCNSIRVESGCWMLYERPNYQGQQYLLRRGEYPDYQQWMGLSDSIRSC, the abundance fitness is -0.119 ± 0.11.

For the variant ITFYEDRAFQGRSYETATDCPNLQPYFSRCNSIRVESGCWMLYERPNYQGQQYLLRRGEYPDYQQWMGLSDSIRSC, the abundance fitness is -0.014 ± 0.096.

With ITFYEDRAFQGRSYETCTDCPNLQPYFSRCNSIRVESGCWMLYERPNYQGQQYLLRRGEYPDYQQWMGLSDSIRSC, the abundance fitness turned out to be 0.054 ± 0.19.

Turning to ITFYEDRAFQGRSYETDTDCPNLQPYFSRCNSIRVESGCWMLYERPNYQGQQYLLRRGEYPDYQQWMGLSDSIRSC, the abundance fitness was -0.135 ± 0.16.

As for ITFYEDRAFQGRSYETITDCPNLQPYFSRCNSIRVESGCWMLYERPNYQGQQYLLRRGEYPDYQQWMGLSDSIRSC, the abundance fitness was -0.227 ± 0.2.

For ITFYEDRAFQGRSYETNTDCPNLQPYFSRCNSIRVESGCWMLYERPNYQGQQYLLRRGEYPDYQQWMGLSDSIRSC, the abundance fitness was -0.24 ± 0.21.

Regarding ITFYEDRAFQGRSYETQTDCPNLQPYFSRCNSIRVESGCWMLYERPNYQGQQYLLRRGEYPDYQQWMGLSDSIRSC, the abundance fitness came out at 0.048 ± 0.27.

In the case of ITFYEDRAFQGRSVETTTDCPNLQPYFSRCNSIRVESGCWMLYERPNYQGQQYLLRRGEYPDYQQWMGLSDSIRSC, the abundance fitness is -0.216 ± 0.092.

For ITFYEDRAFQGRSNETTTDCPNLQPYFSRCNSIRVESGCWMLYERPNYQGQQYLLRRGEYPDYQQWMGLSDSIRSC, the abundance fitness is -0.154 ± 0.23.

Turning to ITFYEDRAFQGRSAETTTDCPNLQPYFSRCNSIRVESGCWMLYERPNYQGQQYLLRRGEYPDYQQWMGLSDSIRSC, the abundance fitness was -0.024 ± 0.1.

For ITFYEDRAFQGRSIETTTDCPNLQPYFSRCNSIRVESGCWMLYERPNYQGQQYLLRRGEYPDYQQWMGLSDSIRSC, the abundance fitness is 0.003 ± 0.098.

ITFYEDRAFQGRSCETTTDCPNLQPYFSRCNSIRVESGCWMLYERPNYQGQQYLLRRGEYPDYQQWMGLSDSIRSC: the abundance fitness was -0.227 ± 0.15.

As for ITFYEDRAFQGRSRETTTDCPNLQPYFSRCNSIRVESGCWMLYERPNYQGQQYLLRRGEYPDYQQWMGLSDSIRSC, the abundance fitness was -0.05 ± 0.054.

In the case of ITFYEDRAFQGRSKETTTDCPNLQPYFSRCNSIRVESGCWMLYERPNYQGQQYLLRRGEYPDYQQWMGLSDSIRSC, the abundance fitness is -0.163 ± 0.1.

With ITFYEDRAFQGRSDETTTDCPNLQPYFSRCNSIRVESGCWMLYERPNYQGQQYLLRRGEYPDYQQWMGLSDSIRSC, the abundance fitness is -0.895 ± 0.26.

For ITFYEDRAFQGRSQETTTDCPNLQPYFSRCNSIRVESGCWMLYERPNYQGQQYLLRRGEYPDYQQWMGLSDSIRSC, the abundance fitness is -0.27 ± 0.22.

As for ITFYEDRAFQGRSPETTTDCPNLQPYFSRCNSIRVESGCWMLYERPNYQGQQYLLRRGEYPDYQQWMGLSDSIRSC, the abundance fitness is -0.922 ± 0.19.

Take ITFYEDRAFQGRSWETTTDCPNLQPYFSRCNSIRVESGCWMLYERPNYQGQQYLLRRGEYPDYQQWMGLSDSIRSC: the abundance fitness was 0.112 ± 0.09.

In the case of ITFYEDRAFQGRSSETTTDCPNLQPYFSRCNSIRVESGCWMLYERPNYQGQQYLLRRGEYPDYQQWMGLSDSIRSC, the abundance fitness was -0.042 ± 0.079.

As for ITFYEDRAFQGRSLETTTDCPNLQPYFSRCNSIRVESGCWMLYERPNYQGQQYLLRRGEYPDYQQWMGLSDSIRSC, the abundance fitness was -0.101 ± 0.072.

For ITFYEDRAFQGRSEETTTDCPNLQPYFSRCNSIRVESGCWMLYERPNYQGQQYLLRRGEYPDYQQWMGLSDSIRSC, the abundance fitness is -0.375 ± 0.12.

Turning to ITFYEDRAFQGRSMETTTDCPNLQPYFSRCNSIRVESGCWMLYERPNYQGQQYLLRRGEYPDYQQWMGLSDSIRSC, the abundance fitness was 0.423 ± 0.29.

As to ITFYEDRAFQGRSTETTTDCPNLQPYFSRCNSIRVESGCWMLYERPNYQGQQYLLRRGEYPDYQQWMGLSDSIRSC, the abundance fitness is -0.167 ± 0.16.

On to ITFYEDRAFQGRSGETTTDCPNLQPYFSRCNSIRVESGCWMLYERPNYQGQQYLLRRGEYPDYQQWMGLSDSIRSC, for which the abundance fitness is -0.497 ± 0.086.

In the case of ITFYEDRAFQGRSHETTTDCPNLQPYFSRCNSIRVESGCWMLYERPNYQGQQYLLRRGEYPDYQQWMGLSDSIRSC, the abundance fitness is -0.117 ± 0.12.

On to ITFYEDRAFQGRSFETTTDCPNLQPYFSRCNSIRVESGCWMLYERPNYQGQQYLLRRGEYPDYQQWMGLSDSIRSC, for which the abundance fitness turned out to be 0.114 ± 0.14.
